Values belong to the molecule of their own block, whether it stands above or below them.
How the values were obtained:
[1] = biological target: WHRN with PDZ2 deleted (mouse) (UniProt Q80VW5); assay: co-IP; cotransfected HEK293 cells, starved 12 h, lysed in 50 mM Tris-HCl pH 7.4, 150 mM NaCl, 1% Triton, 1% NP-40, 2 mM EDTA; anti-Flag M2 or anti-Myc antibody-conjugated agarose, 4 °C overnight; blots against the tags
[2] = biological target: T1, WHRN-PDZ1 domain, purified (mouse, UniProt Q80VW5 137-225); assay: ITC; ITC200; purified PDZ protein 50 uM, peptide 1 mM; 20 mM Tris, 200 mM NaCl, 2 mM EDTA, pH 7.4; conditions: both partners purified
T1 construct: first PDZ domain of whirlin (WHRN), mouse; 13C,15N- or 15N-labelled for NMR; Residues up to A222 were assigned; source: purified protein
T1 sequence: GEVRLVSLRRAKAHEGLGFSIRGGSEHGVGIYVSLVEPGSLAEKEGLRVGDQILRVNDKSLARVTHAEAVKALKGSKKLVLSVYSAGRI

[3] = biological target: T1, WHRN-PDZ1 domain, purified; assay: SPR; BiaCore T200; WHRN-PDZ1 or WHRN-PDZ2 immobilised on a CM5 chip, peptide as analyte in serial dilutions, 120 s association and 120 s dissociation; 10 mM HEPES, 150 mM NaCl, 0.05% Surfactant P20, 0.01% DDM, 0.002% CHS, pH 7.4; conditions: both partners purified
[4] = biological target: T2, WHRN-PDZ2 domain, purified (mouse); assay: as above
T2 sequence (Q80VW5 whole entry, looked up): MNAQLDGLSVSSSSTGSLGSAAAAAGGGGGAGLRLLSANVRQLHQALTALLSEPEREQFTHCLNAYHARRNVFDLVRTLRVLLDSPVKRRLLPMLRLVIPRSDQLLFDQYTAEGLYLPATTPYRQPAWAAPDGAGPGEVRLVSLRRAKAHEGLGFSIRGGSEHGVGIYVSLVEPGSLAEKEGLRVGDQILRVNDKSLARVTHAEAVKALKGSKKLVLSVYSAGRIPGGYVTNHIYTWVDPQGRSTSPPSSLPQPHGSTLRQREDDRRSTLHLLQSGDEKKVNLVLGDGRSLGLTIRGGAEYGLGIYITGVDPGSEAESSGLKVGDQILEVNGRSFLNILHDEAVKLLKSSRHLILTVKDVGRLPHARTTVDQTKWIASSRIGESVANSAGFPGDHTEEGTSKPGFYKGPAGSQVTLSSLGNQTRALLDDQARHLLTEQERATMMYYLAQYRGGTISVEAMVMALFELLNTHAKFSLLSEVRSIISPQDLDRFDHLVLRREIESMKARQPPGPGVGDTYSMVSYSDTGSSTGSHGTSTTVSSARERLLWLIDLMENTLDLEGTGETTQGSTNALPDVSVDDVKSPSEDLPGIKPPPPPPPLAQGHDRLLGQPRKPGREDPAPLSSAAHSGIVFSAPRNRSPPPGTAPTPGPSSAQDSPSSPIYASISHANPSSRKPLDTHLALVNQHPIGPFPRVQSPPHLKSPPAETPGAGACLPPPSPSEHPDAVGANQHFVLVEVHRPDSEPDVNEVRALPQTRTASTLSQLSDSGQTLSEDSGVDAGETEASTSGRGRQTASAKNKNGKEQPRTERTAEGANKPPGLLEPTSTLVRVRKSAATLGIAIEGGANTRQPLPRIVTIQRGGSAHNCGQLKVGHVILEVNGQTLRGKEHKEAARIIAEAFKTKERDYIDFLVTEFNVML

decrease of co-immunoprecipitated ADGRV1 against WT WHRN [1]: 85%
Molecule: ADGRV1 of the PDZ-truncation co-IP (Figure 6b,c) (from UniProt Q8VHN7 4333-6298) (receptor)

Kd [2]: 28.4 ± 4.2 µM
Kd [3]: 23 ± 2.01 µM
B1: USH2Ap, 10-residue C-terminal tail peptide of USH2A harboring the PDZ-binding motif (peptide, UniProt Q2QI47 5184-5193, looked up)
peptide: EHTAFTDTHL
notes: also called USH2A C-terminal peptide; source: synthetic peptide

Kd [4]: 61.2 µM
Molecule: RRIPIADTHL [ADGRV1p, 10-residue C-terminal tail peptide of ADGRV1 harboring the PDZ-binding motif]

Source: paper PMC10238197, “Deafness‐Associated ADGRV1 Mutation Impairs USH2A Stability through Improper Phosphorylation of WHRN and WDSUB1 Recruitment” (Advanced Science, 2023)
